Data taken from paper PMC5627308, “Biochemical Function, Molecular Structure and Evolution of an Atypical Thioredoxin Reductase from Desulfovibrio vulgaris” (Frontiers in Microbiology, 2017).
Blank lines part the entries; values can stand above or below the molecule they belong to.

Legend:
[1] = target: T1, DvTR3 (Nitratidesulfovibrio vulgaris, UniProt Q72F38); assay: reduction of bound flavin, absorbance spectra, anaerobic; assay type: biochemical; conditions: 100 uM NAD(P)H, 50 mM Tris-HCl pH 7.5, 150 mM NaCl, 25 C
T1 construct: gene trxB-1; recombinant from E. coli, purified; FAD-containing
T1 sequence (Q72F38 entry or part of it): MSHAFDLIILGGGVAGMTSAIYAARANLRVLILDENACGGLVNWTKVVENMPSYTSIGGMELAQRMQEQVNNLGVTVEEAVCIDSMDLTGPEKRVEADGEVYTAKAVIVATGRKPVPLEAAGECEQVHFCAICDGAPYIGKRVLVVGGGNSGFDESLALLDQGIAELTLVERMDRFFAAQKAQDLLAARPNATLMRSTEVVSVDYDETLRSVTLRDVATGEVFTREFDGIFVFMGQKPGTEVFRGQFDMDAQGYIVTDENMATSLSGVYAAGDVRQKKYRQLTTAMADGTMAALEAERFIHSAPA

[2] = target: DvTRi, isolated thioredoxin reductase from Desulfovibrio vulgaris Hildenborough (Desulfovibrio vulgaris Hildenborough); assay: crystal structure; oxidized DvTRi, 2.0 Å; crystals from 12% PEG 3350, 100 mM BisTris pH 6.0 (crystals 1) or 25% PEG 4000, 50 mM ammonium acetate, 100 mM sodium citrate pH 5.6 (crystals 2)
[3] = target: DvTrx1C30S (Desulfovibrio vulgaris Hildenborough); assay: cross-linking; mixed-disulfide trapping with single-cysteine variants: DTT-reduced DvTRi variant reacted with equimolar DvTrx1 variant activated as TNB mixed disulfide, 50 mM Na/K phosphate pH 8.8, 2 h at 37°C; non-reducing SDS-PAGE, western blot with antiserum against EcTrxA
[4] = target: T2, DvTR1 (Nitratidesulfovibrio vulgaris, UniProt Q72B02); assay: reduction of bound flavin, absorbance spectra, anaerobic; assay type: biochemical; conditions: 100 uM NAD(P)H, 50 mM Tris-HCl pH 7.5, 150 mM NaCl, 25 C
T2 construct: gene trxB-2; recombinant from E. coli, purified; FAD-containing
T2 sequence (Q72B02 entry or part of it): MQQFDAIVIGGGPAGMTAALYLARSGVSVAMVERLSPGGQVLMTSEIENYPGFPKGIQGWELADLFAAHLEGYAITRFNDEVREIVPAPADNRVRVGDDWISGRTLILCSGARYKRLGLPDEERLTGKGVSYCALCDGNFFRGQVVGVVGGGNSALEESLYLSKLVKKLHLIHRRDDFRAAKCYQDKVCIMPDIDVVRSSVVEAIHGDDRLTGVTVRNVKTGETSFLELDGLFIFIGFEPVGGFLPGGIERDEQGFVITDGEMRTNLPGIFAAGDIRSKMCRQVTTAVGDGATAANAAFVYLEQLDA

[5] = target: DvTrx1C33S (Desulfovibrio vulgaris Hildenborough); assay: cross-linking; mixed-disulfide trapping with single-cysteine variants: DTT-reduced DvTRi variant reacted with equimolar DvTrx1 variant activated as TNB mixed disulfide, 50 mM Na/K phosphate pH 8.8, 2 h at 37°C; non-reducing SDS-PAGE, western blot with antiserum against EcTrxA

Molecule: NC(=O)C1=CN([C@@H]2O[C@H](COP(=O)(O)OP(=O)(O)OC[C@H]3O[C@@H](n4cnc5c(N)ncnc54)[C@H](O)[C@@H]3O)[C@@H](O)[C@H]2O)C=CC1 [NADH]
reduction of bound flavin, absorbance spectra, anaerobic [1]: DvTR1 and DvTR3 were efficiently reduced by their specific reductants

Molecule: NC(=O)C1=CN([C@@H]2O[C@H](COP(=O)(O)OP(=O)(O)OC[C@H]3O[C@@H](n4cnc5c(N)ncnc54)[C@H](OP(=O)(O)O)[C@@H]3O)[C@@H](O)[C@H]2O)C=CC1 [NADPH]
reduction of bound flavin, absorbance spectra, anaerobic [4]: DvTR1 and DvTR3 were efficiently reduced by their specific reductants

Molecule: DvTrx1C33S (natural protein)
stoichiometry N [5]: 2

Further lines, results first:

stoichiometry N [2]: 2
Molecule: DvTRi, isolated thioredoxin reductase from Desulfovibrio vulgaris Hildenborough (enzyme)

stoichiometry N [3]: 2
Molecule: DvTrx1C30S (natural protein)
